Assay results reported in US20240053360A1 (EQUILLIUM, published 2024).

Target: T1, cell surface CD6 on human T cells (CD4 and CD8 T cells of PBMCs / whole blood) (human, UniProt P30203 18-668)
T1 construct: whole, on cells
T1 sequence (looked up): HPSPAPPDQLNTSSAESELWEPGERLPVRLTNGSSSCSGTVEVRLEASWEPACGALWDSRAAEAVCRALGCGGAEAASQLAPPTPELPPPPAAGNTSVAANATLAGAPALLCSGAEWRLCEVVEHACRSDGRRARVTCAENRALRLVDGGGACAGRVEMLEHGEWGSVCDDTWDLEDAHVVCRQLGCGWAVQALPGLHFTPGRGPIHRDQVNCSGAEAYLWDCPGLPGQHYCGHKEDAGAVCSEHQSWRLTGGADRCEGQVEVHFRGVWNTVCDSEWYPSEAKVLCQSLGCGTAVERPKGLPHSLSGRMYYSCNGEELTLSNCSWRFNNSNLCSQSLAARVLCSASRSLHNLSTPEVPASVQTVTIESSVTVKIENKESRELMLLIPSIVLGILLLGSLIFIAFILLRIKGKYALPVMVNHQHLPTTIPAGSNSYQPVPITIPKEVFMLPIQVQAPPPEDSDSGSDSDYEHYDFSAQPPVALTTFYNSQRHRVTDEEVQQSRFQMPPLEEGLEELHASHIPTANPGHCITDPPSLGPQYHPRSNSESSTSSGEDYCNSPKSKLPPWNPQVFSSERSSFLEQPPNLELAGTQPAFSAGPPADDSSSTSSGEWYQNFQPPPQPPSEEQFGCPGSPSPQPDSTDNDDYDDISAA
Experiment: flow cytometry, receptor occupancy on CD4 and CD8 T cells

B1: itolizumab (antibody, human IgG1, kappa, V domains shown)
VH: EVQLVESGGGLVKPGGSLKLSCAASGFKFSRYAMSWVRQAPGKRLEWVATISSGGSYIYYPDSVKGRFTISRDNVKNTLYLQMSSLRSEDTAMYYCARRDYDLDYFDSWGQGTLVTVSS
VL: DIQMTQSPSSLSASVGDRVTITCKASRDIRSYLTWYQQKPGKAPKTLIYYATSLADGVPSRFSGSGSGQDYSLTISSLESDDTATYYCLQHGESPFTLGSGTKLEIKR
notes: Humanized anti-CD6 monoclonal antibody; also called EQ001; ALZUMAB
binding result: binds
